Measurements published in patent publication US20260167699A1 (Chugai, published 2026).

T1: FcγRIIb (human, UniProt P31994 43-217)
T1 construct: extracellular domain; also called 2b
T1 sequence: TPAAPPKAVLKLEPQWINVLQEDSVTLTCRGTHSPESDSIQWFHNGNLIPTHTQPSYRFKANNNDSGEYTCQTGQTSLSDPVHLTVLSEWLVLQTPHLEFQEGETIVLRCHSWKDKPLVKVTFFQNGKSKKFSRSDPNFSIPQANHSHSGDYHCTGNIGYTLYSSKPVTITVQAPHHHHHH

T2: FcγRIIa(H) (human, UniProt P12318 34-217)
T2 construct: extracellular domain; also called 2aH
T2 sequence: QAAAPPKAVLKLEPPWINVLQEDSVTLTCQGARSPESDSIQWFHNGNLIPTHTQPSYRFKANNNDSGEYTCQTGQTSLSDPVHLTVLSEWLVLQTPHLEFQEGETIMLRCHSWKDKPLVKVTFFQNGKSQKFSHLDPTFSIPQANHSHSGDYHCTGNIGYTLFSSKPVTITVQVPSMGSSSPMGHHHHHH

T3: FcγRIIa(R) (human, UniProt P12318 34-217)
T3 construct: extracellular domain; also called 2aR
T3 sequence: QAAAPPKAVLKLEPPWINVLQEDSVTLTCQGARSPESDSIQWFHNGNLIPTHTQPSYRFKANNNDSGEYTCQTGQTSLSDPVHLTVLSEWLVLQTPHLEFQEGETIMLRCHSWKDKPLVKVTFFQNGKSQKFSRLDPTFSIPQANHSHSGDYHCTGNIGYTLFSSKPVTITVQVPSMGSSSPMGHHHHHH

T4: FcγRIIa(H) extracellular domain with C-terminal His tag (human, UniProt P12318 34-217)
T4 construct: extracellular domain; H131 allotype; also called 2aH; CD32
T4 sequence: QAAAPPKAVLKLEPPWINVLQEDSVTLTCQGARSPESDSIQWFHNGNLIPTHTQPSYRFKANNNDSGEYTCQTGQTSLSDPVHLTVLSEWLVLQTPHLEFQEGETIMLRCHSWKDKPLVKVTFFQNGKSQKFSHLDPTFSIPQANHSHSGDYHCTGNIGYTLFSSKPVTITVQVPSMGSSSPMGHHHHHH

T5: FcγRIIa(R) extracellular domain with C-terminal His tag (human, UniProt P12318 34-217)
T5 construct: extracellular domain; R131 allotype; also called 2aR; CD32
T5 sequence: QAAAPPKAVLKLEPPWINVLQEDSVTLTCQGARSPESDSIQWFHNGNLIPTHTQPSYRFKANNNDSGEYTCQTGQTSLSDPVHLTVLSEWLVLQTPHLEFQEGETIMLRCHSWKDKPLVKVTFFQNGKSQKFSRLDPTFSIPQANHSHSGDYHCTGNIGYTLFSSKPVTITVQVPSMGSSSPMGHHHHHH

T6: FcγRIIb extracellular domain with C-terminal His tag (human, UniProt P31994 43-217)
T6 construct: extracellular domain; also called 2b; CD32
T6 sequence: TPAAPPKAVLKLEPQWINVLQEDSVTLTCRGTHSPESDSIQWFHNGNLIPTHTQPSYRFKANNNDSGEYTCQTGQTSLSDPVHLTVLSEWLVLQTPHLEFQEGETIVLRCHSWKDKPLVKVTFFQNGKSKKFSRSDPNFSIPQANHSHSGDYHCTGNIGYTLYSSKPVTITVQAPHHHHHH


Key:
FcγRIa = target: T7, FcγRIa (human, UniProt P12314 16-292); test: SPR, relative to GpH7-A5/GpH7-B3/GpL16-k0 =100
T7 construct: extracellular domain; also called 1a

FcγRIIb = target: T1, FcγRIIb; test: SPR, relative to GpH7-A5/GpH7-B3/GpL16-k0 =100
FcγRIIa(H) = target: T2, FcγRIIa(H); test: SPR, relative to GpH7-A5/GpH7-B3/GpL16-k0 =100
FcγRIIa(R) = target: T3, FcγRIIa(R); test: SPR, relative to GpH7-A5/GpH7-B3/GpL16-k0 =100
[1] = target: T4, FcγRIIa(H) extracellular domain with …; test: SPR; % of GpH7-A5/GpH7-B3/GpL16-k0
[2] = target: T5, FcγRIIa(R) extracellular domain with …; test: SPR; % of GpH7-A5/GpH7-B3/GpL16-k0
[3] = target: T8, FcγRIa extracellular domain with C-terminal His tag (human, UniProt P12314 16-292); test: SPR; % of GpH7-A5/GpH7-B3/GpL16-k0
T8 construct: extracellular domain; also called 1a; CD64

[4] = target: T9, FcγRIIIa extracellular domain with C-terminal His tag (human, UniProt P08637 17-208); test: SPR; % of GpH7-A5/GpH7-B3/GpL16-k0
T9 construct: extracellular domain; also called 3a; CD16

[5] = target: T6, FcγRIIb extracellular domain with …; test: SPR; % of GpH7-A5/GpH7-B3/GpL16-k0

T9 sequence (P08637 other isoform, or with tags, fused parts or gaps): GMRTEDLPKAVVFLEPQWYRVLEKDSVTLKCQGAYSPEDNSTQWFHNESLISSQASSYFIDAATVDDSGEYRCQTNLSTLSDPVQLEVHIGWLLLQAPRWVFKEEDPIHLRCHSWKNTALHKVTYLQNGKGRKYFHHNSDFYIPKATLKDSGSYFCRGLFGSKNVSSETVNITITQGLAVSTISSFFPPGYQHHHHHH
T7 sequence (P12314 other isoform, or with tags, fused parts or gaps): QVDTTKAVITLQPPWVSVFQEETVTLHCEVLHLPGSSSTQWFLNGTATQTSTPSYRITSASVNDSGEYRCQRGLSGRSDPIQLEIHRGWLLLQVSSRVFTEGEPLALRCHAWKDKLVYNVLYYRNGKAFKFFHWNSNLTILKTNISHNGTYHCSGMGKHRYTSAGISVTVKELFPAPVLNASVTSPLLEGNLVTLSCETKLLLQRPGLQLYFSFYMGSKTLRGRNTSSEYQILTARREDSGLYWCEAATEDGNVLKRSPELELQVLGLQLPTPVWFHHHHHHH
T8 sequence (P12314 other isoform, or with tags, fused parts or gaps): as above

Binder | He/Con 1a (FcγRIa) [%] | He/Con 2b (FcγRIIb) [%] | He/Con 2aH (FcγRIIa(H)) [%] | He/Con 2aR (FcγRIIa(R)) [%] | He/Con 2aH [1] [%] | He/Con 2aR [2] [%] | He/Con 1a [3] [%] | He/Con 3a [4] [%] | He/Con 2b [5] [%]
GpH7-A5/GpH7-B3 variant Y300_09D/GpL16-k0 (antibody, human IgG1, kappa, He Ab: heterodimerized IgG1, one H chain mutated) heavy 1: not shown heavy 2: not shown light: DIVMTQSPLSLPVTPGEPASISCQASESLVHSNRNTYLHWYLQKPGQSPQLLIYKVSNRFSGVPDRFSGSGSGTDFTLKISRVEAEDVGVYYCSQNTHVPPTFGQGTKVEIERTVAAPSVFIFPPSDEQLKSGTASVVCLLNNFYPREAKVQWKVDNALQSGNSQESVTEQDSKDSTYSLSSTLTLSKADYEKHKVYACEVTHQGLSSPVTKSFNRGEC | 106 | 122 | 101 | 105 | – | – | – | – | –
GpH7-A5/GpH7-B3 variant T335_14T/GpL16-k0 (antibody, human IgG1, kappa, also called He Ab) heavy 1: not shown heavy 2: not shown light: DIVMTQSPLSLPVTPGEPASISCQASESLVHSNRNTYLHWYLQKPGQSPQLLIYKVSNRFSGVPDRFSGSGSGTDFTLKISRVEAEDVGVYYCSQNTHVPPTFGQGTKVEIERTVAAPSVFIFPPSDEQLKSGTASVVCLLNNFYPREAKVQWKVDNALQSGNSQESVTEQDSKDSTYSLSSTLTLSKADYEKHKVYACEVTHQGLSSPVTKSFNRGEC | – | – | – | – | 112 | 116 | 110 | 104 | 116
GpH7-A5/GpH7-B3 variant Y300_13S/GpL16-k0 (antibody, human IgG1, kappa, He Ab: heterodimerized IgG1, one H chain mutated) heavy 1: not shown heavy 2: not shown light: DIVMTQSPLSLPVTPGEPASISCQASESLVHSNRNTYLHWYLQKPGQSPQLLIYKVSNRFSGVPDRFSGSGSGTDFTLKISRVEAEDVGVYYCSQNTHVPPTFGQGTKVEIERTVAAPSVFIFPPSDEQLKSGTASVVCLLNNFYPREAKVQWKVDNALQSGNSQESVTEQDSKDSTYSLSSTLTLSKADYEKHKVYACEVTHQGLSSPVTKSFNRGEC | 105 | 70.4 | 97.8 | 72.4 | – | – | – | – | –
GpH7-A5/GpH7-B3 variant A330_06M/GpL16-k0 (antibody, human IgG1, kappa, heterodimerized IgG1 (He Ab), mutation in one H chain only; also called He Ab) heavy 1: not shown heavy 2: not shown light: DIVMTQSPLSLPVTPGEPASISCQASESLVHSNRNTYLHWYLQKPGQSPQLLIYKVSNRFSGVPDRFSGSGSGTDFTLKISRVEAEDVGVYYCSQNTHVPPTFGQGTKVEIERTVAAPSVFIFPPSDEQLKSGTASVVCLLNNFYPREAKVQWKVDNALQSGNSQESVTEQDSKDSTYSLSSTLTLSKADYEKHKVYACEVTHQGLSSPVTKSFNRGEC | – | – | – | – | 101 | 107 | 108 | 139 | 90.9
GpH7-A5/GpH7-B3 variant Y300_11K/GpL16-k0 (antibody, human IgG1, kappa, He Ab: heterodimerized IgG1, one H chain mutated) heavy 1: not shown heavy 2: not shown light: DIVMTQSPLSLPVTPGEPASISCQASESLVHSNRNTYLHWYLQKPGQSPQLLIYKVSNRFSGVPDRFSGSGSGTDFTLKISRVEAEDVGVYYCSQNTHVPPTFGQGTKVEIERTVAAPSVFIFPPSDEQLKSGTASVVCLLNNFYPREAKVQWKVDNALQSGNSQESVTEQDSKDSTYSLSSTLTLSKADYEKHKVYACEVTHQGLSSPVTKSFNRGEC | 101 | 67.4 | 74.2 | 73.1 | – | – | – | – | –
GpH7-A5/GpH7-B3 variant Y300_14T/GpL16-k0 (antibody, human IgG1, kappa, He Ab: heterodimerized IgG1, one H chain mutated) heavy 1: not shown heavy 2: not shown light: DIVMTQSPLSLPVTPGEPASISCQASESLVHSNRNTYLHWYLQKPGQSPQLLIYKVSNRFSGVPDRFSGSGSGTDFTLKISRVEAEDVGVYYCSQNTHVPPTFGQGTKVEIERTVAAPSVFIFPPSDEQLKSGTASVVCLLNNFYPREAKVQWKVDNALQSGNSQESVTEQDSKDSTYSLSSTLTLSKADYEKHKVYACEVTHQGLSSPVTKSFNRGEC | 105 | 72.7 | 104 | 78.6 | – | – | – | – | –
GpH7-A5/GpH7-B3 variant Y300_10E/GpL16-k0 (antibody, human IgG1, kappa, He Ab: heterodimerized IgG1, one H chain mutated) heavy 1: not shown heavy 2: not shown light: DIVMTQSPLSLPVTPGEPASISCQASESLVHSNRNTYLHWYLQKPGQSPQLLIYKVSNRFSGVPDRFSGSGSGTDFTLKISRVEAEDVGVYYCSQNTHVPPTFGQGTKVEIERTVAAPSVFIFPPSDEQLKSGTASVVCLLNNFYPREAKVQWKVDNALQSGNSQESVTEQDSKDSTYSLSSTLTLSKADYEKHKVYACEVTHQGLSSPVTKSFNRGEC | 108 | 175 | 108 | 127 | – | – | – | – | –
GpH7-A5/GpH7-B3 variant A330_05P/GpL16-k0 (antibody, human IgG1, kappa, heterodimerized IgG1 (He Ab), mutation in one H chain only; also called He Ab) heavy 1: not shown heavy 2: not shown light: DIVMTQSPLSLPVTPGEPASISCQASESLVHSNRNTYLHWYLQKPGQSPQLLIYKVSNRFSGVPDRFSGSGSGTDFTLKISRVEAEDVGVYYCSQNTHVPPTFGQGTKVEIERTVAAPSVFIFPPSDEQLKSGTASVVCLLNNFYPREAKVQWKVDNALQSGNSQESVTEQDSKDSTYSLSSTLTLSKADYEKHKVYACEVTHQGLSSPVTKSFNRGEC | – | – | – | – | 92.6 | 129 | 105 | 152 | 154
GpH7-A5/GpH7-B3 variant Y300_18N/GpL16-k0 (antibody, human IgG1, kappa, He Ab: heterodimerized IgG1, one H chain mutated) heavy 1: not shown heavy 2: not shown light: DIVMTQSPLSLPVTPGEPASISCQASESLVHSNRNTYLHWYLQKPGQSPQLLIYKVSNRFSGVPDRFSGSGSGTDFTLKISRVEAEDVGVYYCSQNTHVPPTFGQGTKVEIERTVAAPSVFIFPPSDEQLKSGTASVVCLLNNFYPREAKVQWKVDNALQSGNSQESVTEQDSKDSTYSLSSTLTLSKADYEKHKVYACEVTHQGLSSPVTKSFNRGEC | 101 | 92.7 | 101 | 96.2 | – | – | – | – | –
GpH7-A5/GpH7-B3 variant Y300_19Q/GpL16-k0 (antibody, human IgG1, kappa, He Ab: heterodimerized IgG1, one H chain mutated) heavy 1: not shown heavy 2: not shown light: DIVMTQSPLSLPVTPGEPASISCQASESLVHSNRNTYLHWYLQKPGQSPQLLIYKVSNRFSGVPDRFSGSGSGTDFTLKISRVEAEDVGVYYCSQNTHVPPTFGQGTKVEIERTVAAPSVFIFPPSDEQLKSGTASVVCLLNNFYPREAKVQWKVDNALQSGNSQESVTEQDSKDSTYSLSSTLTLSKADYEKHKVYACEVTHQGLSSPVTKSFNRGEC | 106 | 142 | 107 | 119 | – | – | – | – | –
GpH7-A5/GpH7-B3 variant Y300_16H/GpL16-k0 (antibody, human IgG1, kappa, He Ab: heterodimerized IgG1, one H chain mutated) heavy 1: not shown heavy 2: not shown light: DIVMTQSPLSLPVTPGEPASISCQASESLVHSNRNTYLHWYLQKPGQSPQLLIYKVSNRFSGVPDRFSGSGSGTDFTLKISRVEAEDVGVYYCSQNTHVPPTFGQGTKVEIERTVAAPSVFIFPPSDEQLKSGTASVVCLLNNFYPREAKVQWKVDNALQSGNSQESVTEQDSKDSTYSLSSTLTLSKADYEKHKVYACEVTHQGLSSPVTKSFNRGEC | 105 | 114 | 105 | 103 | – | – | – | – | –
GpH7-A5/GpH7-B3 variant Y300_20W/GpL16-k0 (antibody, human IgG1, kappa, He Ab: heterodimerized IgG1, one H chain mutated) heavy 1: not shown heavy 2: not shown light: DIVMTQSPLSLPVTPGEPASISCQASESLVHSNRNTYLHWYLQKPGQSPQLLIYKVSNRFSGVPDRFSGSGSGTDFTLKISRVEAEDVGVYYCSQNTHVPPTFGQGTKVEIERTVAAPSVFIFPPSDEQLKSGTASVVCLLNNFYPREAKVQWKVDNALQSGNSQESVTEQDSKDSTYSLSSTLTLSKADYEKHKVYACEVTHQGLSSPVTKSFNRGEC | 106 | 110 | 103 | 104 | – | – | – | – | –
GpH7-A5/GpH7-B3 variant A330_11K/GpL16-k0 (antibody, human IgG1, kappa, heterodimerized IgG1 (He Ab), mutation in one H chain only; also called He Ab) heavy 1: not shown heavy 2: not shown light: DIVMTQSPLSLPVTPGEPASISCQASESLVHSNRNTYLHWYLQKPGQSPQLLIYKVSNRFSGVPDRFSGSGSGTDFTLKISRVEAEDVGVYYCSQNTHVPPTFGQGTKVEIERTVAAPSVFIFPPSDEQLKSGTASVVCLLNNFYPREAKVQWKVDNALQSGNSQESVTEQDSKDSTYSLSSTLTLSKADYEKHKVYACEVTHQGLSSPVTKSFNRGEC | – | – | – | – | 118 | 124 | 107 | 91.8 | 107
